In PMC4919518:

Experiments:
RsAgo WT [1] = biological target: T1, RsAgo WT (Rhodobacter sphaeroides (ATCC 17025D-5), UniProt A4WYU7 1-777); assay: fluorescence polarization; 5 mM Mg2+; FP: 20 mM HEPES-KOH pH 7.5, 200 mM NaCl, 5 mM MgCl2, 0.01 mg/ml E. coli total tRNA, 0.01% NP-40, 10 pM probe, 25 C; EMSA: 20 mM HEPES-KOH pH 7.5, 200 mM NaCl, 5
T1 sequence: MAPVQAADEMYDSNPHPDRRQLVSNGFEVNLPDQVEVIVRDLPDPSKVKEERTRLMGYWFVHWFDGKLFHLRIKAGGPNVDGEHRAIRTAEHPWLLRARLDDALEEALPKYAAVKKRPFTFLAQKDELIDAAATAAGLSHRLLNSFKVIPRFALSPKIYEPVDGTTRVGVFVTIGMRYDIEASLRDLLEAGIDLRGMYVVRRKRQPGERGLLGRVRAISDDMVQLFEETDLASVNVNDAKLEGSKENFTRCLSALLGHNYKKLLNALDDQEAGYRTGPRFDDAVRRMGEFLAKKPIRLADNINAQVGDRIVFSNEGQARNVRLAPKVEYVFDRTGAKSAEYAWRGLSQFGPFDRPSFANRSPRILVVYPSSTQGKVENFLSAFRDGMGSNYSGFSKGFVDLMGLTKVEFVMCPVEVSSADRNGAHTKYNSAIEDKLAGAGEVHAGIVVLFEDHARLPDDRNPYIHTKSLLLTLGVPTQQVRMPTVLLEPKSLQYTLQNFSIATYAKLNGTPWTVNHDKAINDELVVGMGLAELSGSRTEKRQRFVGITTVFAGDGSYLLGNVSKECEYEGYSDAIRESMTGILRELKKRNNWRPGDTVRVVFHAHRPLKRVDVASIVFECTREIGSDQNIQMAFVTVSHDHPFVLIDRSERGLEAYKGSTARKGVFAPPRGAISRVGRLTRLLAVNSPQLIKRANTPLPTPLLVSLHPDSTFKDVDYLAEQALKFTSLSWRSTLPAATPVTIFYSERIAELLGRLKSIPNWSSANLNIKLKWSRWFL

RsAgo WT [2] = biological target: T1, RsAgo WT; assay: EMSA; 5 mM Mg2+; FP: 20 mM HEPES-KOH pH 7.5, 200 mM NaCl, 5 mM MgCl2, 0.01 mg/ml E. coli total tRNA, 0.01% NP-40, 10 pM probe, 25 C; EMSA: 20 mM HEPES-KOH pH 7.5, 200 mM NaCl, 5
RsAgo delP45-W63 = biological target: T2, RsAgo delP45-W63 (Rhodobacter sphaeroides (ATCC 17025D-5), UniProt A4WYU7 1-777, del45-63); assay: EMSA; RsAgo-guide RNA complex titrated on target DNA; FP: 20 mM HEPES-KOH pH 7.5, 200 mM NaCl, 5 mM MgCl2, 0.01 mg/ml E. coli total tRNA, 0.01% NP-40, 10 pM probe, 25 C; EMSA: 20 mM HEPES-KOH pH 7.5, 200 mM NaCl, 5
T2 sequence: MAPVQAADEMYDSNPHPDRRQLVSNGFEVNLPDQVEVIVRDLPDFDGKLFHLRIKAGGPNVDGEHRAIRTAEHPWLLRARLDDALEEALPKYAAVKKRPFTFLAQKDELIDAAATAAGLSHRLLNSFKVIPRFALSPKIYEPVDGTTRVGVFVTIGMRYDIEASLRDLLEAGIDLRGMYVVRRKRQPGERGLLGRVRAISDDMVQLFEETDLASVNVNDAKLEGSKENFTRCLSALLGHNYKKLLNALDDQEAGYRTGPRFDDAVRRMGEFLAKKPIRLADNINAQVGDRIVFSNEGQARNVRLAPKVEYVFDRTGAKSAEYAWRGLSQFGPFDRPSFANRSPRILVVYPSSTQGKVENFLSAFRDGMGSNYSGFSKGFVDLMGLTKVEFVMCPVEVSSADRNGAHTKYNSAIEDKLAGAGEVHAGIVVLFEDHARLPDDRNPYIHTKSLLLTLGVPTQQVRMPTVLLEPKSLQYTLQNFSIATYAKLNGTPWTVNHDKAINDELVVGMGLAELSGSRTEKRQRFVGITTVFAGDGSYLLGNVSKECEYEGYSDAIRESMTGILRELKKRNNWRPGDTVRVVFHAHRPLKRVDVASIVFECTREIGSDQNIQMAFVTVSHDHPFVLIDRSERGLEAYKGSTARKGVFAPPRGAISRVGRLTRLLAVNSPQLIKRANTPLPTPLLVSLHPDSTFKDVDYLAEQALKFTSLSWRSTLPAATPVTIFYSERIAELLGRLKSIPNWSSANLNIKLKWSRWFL

RsAgo delN20 = biological target: T3, RsAgo delN20 (Rhodobacter sphaeroides (ATCC 17025D-5), UniProt A4WYU7 21-777, del1-20); assay: X-ray crystal structure (2 A); Mg2+ at guide phosphates 1 and 3 and L777 carboxylate; FP: 20 mM HEPES-KOH pH 7.5, 200 mM NaCl, 5 mM MgCl2, 0.01 mg/ml E. coli total tRNA, 0.01% NP-40, 10 pM probe, 25 C; EMSA: 20 mM HEPES-KOH pH 7.5, 200 mM NaCl, 5
T3 sequence: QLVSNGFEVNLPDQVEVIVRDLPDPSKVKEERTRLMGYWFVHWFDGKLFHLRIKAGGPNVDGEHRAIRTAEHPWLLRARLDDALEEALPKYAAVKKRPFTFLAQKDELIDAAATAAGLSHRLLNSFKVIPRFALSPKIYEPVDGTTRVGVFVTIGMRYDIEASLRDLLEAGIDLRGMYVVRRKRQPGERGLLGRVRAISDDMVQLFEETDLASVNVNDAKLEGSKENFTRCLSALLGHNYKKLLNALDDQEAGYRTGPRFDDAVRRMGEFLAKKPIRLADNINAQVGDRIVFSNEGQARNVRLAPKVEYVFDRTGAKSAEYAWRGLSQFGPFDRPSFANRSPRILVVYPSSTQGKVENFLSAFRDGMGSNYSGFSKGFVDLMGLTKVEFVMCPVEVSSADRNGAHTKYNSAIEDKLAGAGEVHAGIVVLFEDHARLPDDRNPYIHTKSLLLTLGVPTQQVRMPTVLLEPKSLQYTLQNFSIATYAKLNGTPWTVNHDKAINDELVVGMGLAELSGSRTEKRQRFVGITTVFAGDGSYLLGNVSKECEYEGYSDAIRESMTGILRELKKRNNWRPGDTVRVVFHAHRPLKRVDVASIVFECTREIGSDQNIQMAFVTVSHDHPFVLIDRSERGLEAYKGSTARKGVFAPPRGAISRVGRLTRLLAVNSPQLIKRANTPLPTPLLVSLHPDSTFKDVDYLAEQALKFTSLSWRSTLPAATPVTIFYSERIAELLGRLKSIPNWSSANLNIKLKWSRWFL

Binder	Kd (RsAgo WT [1])	also measured
TTACAACCTACTACCTCG (ssDNA, 5'-phosphate) [5'P-DNA, FAM]	42.6 ± 3.4 nM	–
5'P-RNA/DNA (RR/DD) (DNA:RNA, 5'-phosphate on guide) RNA: UUACAACCUACUACCUCG DNA: CGAGGTAGTAGGTTGTAA	–	binding result (RsAgo WT [2]): binds
UUACAACCUACUACCUCG (ssRNA, 5'-OH) [5'OH-RNA, FAM]	1140 ± 54 nM	–
guide 5'P-RNA + 70-base target DNA (DNA:RNA, 5'-phosphate on guide) RNA: UUACAACCUACUACCUCG DNA: TAAAATCTTAAAGTTATTATTTCTATACGAGGTAGTAGGTTGTAATTATCACAATTTATAGTAGTATTAA	–	binding result (RsAgo delP45-W63): no binding
18-nt guide RNA/18-nt target DNA (crystal) (DNA:RNA, 5'-phosphate on guide) RNA: UUACAACCUACUACCUCG DNA: CGAGGTAGTAGGTTGTAA	–	binding result (RsAgo delN20): binds
AUACAACCUACUACCUCG (ssRNA, 5'-phosphate) [5'A-RNA, FAM]	24.8 ± 1.7 nM	–
CUACAACCUACUACCUCG (ssRNA, 5'-phosphate) [5'C-RNA, FAM]	67 ± 3.5 nM	–
GUACAACCUACUACCUCG (ssRNA, 5'-phosphate) [5'G-RNA, FAM]	181 ± 13.3 nM	–
